Measurements from paper PMC2175287 (The Journal of Cell Biology, 2000).

Experiments:
Mtr10p = Mtr10p (UniProt Q99189); assay: GST pull-down, S-tag blot, no extract; details: reference: mock-phosphorylated GST-Npl3p; sites S411
Mtr10-Protein A = biological target: T1, Mtr10-Protein A (S. cerevisiae, UniProt Q99189 1-972); assay: co-IP
T1 sequence (looked up): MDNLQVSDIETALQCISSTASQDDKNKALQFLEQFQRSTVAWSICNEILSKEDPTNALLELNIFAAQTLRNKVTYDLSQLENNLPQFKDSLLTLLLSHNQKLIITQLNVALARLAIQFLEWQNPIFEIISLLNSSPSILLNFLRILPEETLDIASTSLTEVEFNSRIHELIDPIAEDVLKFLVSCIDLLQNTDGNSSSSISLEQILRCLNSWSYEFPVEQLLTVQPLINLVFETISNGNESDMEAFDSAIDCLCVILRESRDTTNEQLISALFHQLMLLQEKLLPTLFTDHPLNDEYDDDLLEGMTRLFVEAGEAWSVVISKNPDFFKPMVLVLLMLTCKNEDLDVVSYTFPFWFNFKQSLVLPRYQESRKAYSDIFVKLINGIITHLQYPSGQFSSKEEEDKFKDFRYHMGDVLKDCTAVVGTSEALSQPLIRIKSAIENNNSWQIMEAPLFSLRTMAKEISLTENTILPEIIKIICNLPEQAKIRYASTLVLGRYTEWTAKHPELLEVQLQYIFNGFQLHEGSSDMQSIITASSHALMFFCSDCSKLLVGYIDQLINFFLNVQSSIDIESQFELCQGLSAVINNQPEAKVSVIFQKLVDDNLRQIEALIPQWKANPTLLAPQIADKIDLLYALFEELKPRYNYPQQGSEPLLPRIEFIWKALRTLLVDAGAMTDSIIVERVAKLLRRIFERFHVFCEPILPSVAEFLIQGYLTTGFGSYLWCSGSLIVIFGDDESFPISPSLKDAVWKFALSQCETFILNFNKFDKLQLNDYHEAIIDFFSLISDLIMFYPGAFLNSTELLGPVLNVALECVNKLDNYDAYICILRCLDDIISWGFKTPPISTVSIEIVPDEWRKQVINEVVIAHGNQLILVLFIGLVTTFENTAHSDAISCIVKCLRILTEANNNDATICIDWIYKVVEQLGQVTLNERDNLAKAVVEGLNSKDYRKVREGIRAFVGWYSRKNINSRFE

[1] = biological target: T2, in vitro-translated 35S-labeled Mtr10p (S. cerevisiae, UniProt Q99189 1-972, 35S-labeled)
T2 sequence (looked up): T1 sequence (looked up)

Molecule: Npl3p (from UniProt Q01560) Sky1p-phosphorylated GST-Npl3p
- binding against the reference (Mtr10p): stronger

B1: Npl3p (endogenous) (natural protein, S. cerevisiae (endogenous in yeast), UniProt Q01560 1-414, looked up)
chain: MSEAQETHVEQLPESVVDAPVEEQHQEPPQAPDAPQEPQVPQESAPQESAPQEPPAPQEQNDVPPPSNAPIYEGEESHSVQDYQEAHQHHQPPEPQPYYPPPPPGEHMHGRPPMHHRQEGELSNTRLFVRPFPLDVQESELNEIFGPFGPMKEVKILNGFAFVEFEEAESAAKAIEEVHGKSFANQPLEVVYSKLPAKRYRITMKNLPEGCSWQDLKDLARENSLETTFSSVNTRDFDGTGALEFPSEEILVEALERLNNIEFRGSVITVERDDNPPPIRRSNRGGFRGRGGFRGGFRGGFRGGFSRGGFGGPRGGFGGPRGGYGGYSRGGYGGYSRGGYGGSRGGYDSPRGGYDSPRGGYSRGGYGGPRNDYGPPRGSYGGSRGGYDGPRGDYGPPRDAYRTRDAPRERSPTR
- fold reduction of co-precipitated Npl3p in sky1Δ against wild-type yeast (Mtr10-Protein A): 3 fold

B2: GST-Npl3p phosphorylated by Sky1p (natural protein, S. cerevisiae, UniProt Q01560 1-414, looked up)
chain: B1 chain
modifications: phosphoserine at 411 (single site of Sky1p)
- Kd [1]: 0.03 µM
